The text below walks through data of paper PMC10709384, “Structure of the complete Saccharomyces cerevisiae Rpd3S-nucleosome complex” (Nature Communications, 2023).

The series concerns the molecule itself. As to the kind of experiment: cryo-EM structure; nucleosome (0.9 µM) and Rpd3S (1.8 µM) mixed on ice for 1 h in 50 mM NaCl, 20 mM Na-HEPES pH 7.4, 1 mM TCEP, 4% glycerol; Superose 6 Increase 3.2/300; mild glutaraldehyde cross-linking; single-particle cryo-EM, overall 2.8 Å (Ume1 only at more than 8 Å).

B1: Rco1 (natural protein, S. cerevisiae)
chain: MDTSKKDTTRSPSHSNSSSPSSSSLSSSSSKEKKRPKRLSSQNVNYDLKRRKIITSEGIERSFKNEHSNLAVEDNIPEEEPKELLEKDSKGNIIKLNEPSTISEDSKVSVTGLPLNKGPSEKIKRESLWNYRKNLGGQSNNSEMTLVPSKRFTQVPKNFQDLNRNDLKTFLTENMTEESNIRSTIGWNGDIINRTRDREPESDRDNKKLSNIRTKIILSTNATYDSKSKLFGQNSIKSTSNASEKIFRDKNNSTIDFENEDFCSACNQSGSFLCCDTCPKSFHFLCLDPPIDPNNLPKGDWHCNECKFKIFINNSMATLKKIESNFIKQNNNVKIFAKLLFNIDSHNPKQFQLPNYIKETFPAVKTGSRGQYSDENDKIPLTDRQLFNTSYGQSITKLDSYNPDTHIDSNSGKFLICYKCNQTRLGSWSHPENSRLIMTCDYCQTPWHLDCVPRASFKNLGSKWKCPLHSPTKVYKKIHHCQEDNSVNYKVWKKQRLINKKNQLYYEPLQKIGYQNNGNIQIIPTTSHTDYDFNQDFKITQIDENSIKYDFFDKIYKSKMVQKRKLFQFQESLIDKLVSNGSQNGNSEDNMVKDIASLIYFQVSNNDKSSNNKSASKSNNLRKLWDLKELTNVVVPNELDSIQFNDFSSDEIKHLLYLKKIIESKPKEELLKFLNIENPENQSE
notes: Rco1, S. cerevisiae, amplified from genomic DNA of strain BJ5464; cloned into a 438-A vector with no tag; Two copies (Rco1A in the core module, Rco1B in the auxiliary module) stand in the Rpd3S complex; also called Rco1A; Rco1B
Take B1: the binding result was “binds”.
